Source: patent publication US20230399394A1 (SUNSHINE GUOJIAN PHARMACEUTICAL SHANGHAI, published 2023)

Experiments:
[1] = molecular target: T1, IL-33 mutant protein D65A (human, UniProt O95760 112-270); assay: ELISA as Example 9; row D65A
T1 construct: Prokaryotic expression
T1 chain: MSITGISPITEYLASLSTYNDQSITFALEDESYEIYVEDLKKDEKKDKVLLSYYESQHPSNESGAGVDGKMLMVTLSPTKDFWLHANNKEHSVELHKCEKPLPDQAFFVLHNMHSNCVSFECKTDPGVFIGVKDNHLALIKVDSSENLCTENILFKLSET
Method: (§1) SA protein was diluted to 2 μg/mL to coat ELISA plate at 100 μL/well overnight at 4° C. The plate was washed with PBST (PBS containing 0.05% Tween20) for 3 times, and blocked with 2% BSA prepared in PBS at 200 μL/well, at room temperature for 2 h. After the plate was washed twice with PBST, IL-33-his-biotin protein was diluted to 1 μg/mL with 1% BSA prepared in PBST, and was added to ELISA plate at 100 μL/well. The plate was incubated at room temperature for 1 h, and each monoclonal antibody was diluted with 1% BSA prepared in PBST in a 3-fold gradient. The highest concentration of antibody was 10 μg/mL, and the antibody was diluted for 12 gradients. Each diluted monoclonal antibody was added to ELISA wells with 100 μL/well, and the plate was incubated at room temperature for 1 h. Each sample was added to duplicate wells in parallel. The plate was washed with PBST for 3 times, and HRP-anti human IgG Fc secondary antibody prepared with PBST was diluted at an appropriate ratio, and was added to ELISA wells at 100 μL/well. […] Each reaction solution was shaken uniformly and OD450 nm was read on a microplate reader. The data was analyzed and EC₅₀ was calculated.
(§2) Subsequently, according to the experimental method of Example 9, the affinity of the above mutant proteins to 874F7-Hu1 was determined, and IL-33 proteins (WT-1, WT-2, WT-3, and WT-4) without any mutation were set as controls.

[2] = molecular target: T2, IL-33 mutant protein L50A (human, UniProt O95760 112-270); assay: ELISA as Example 9; row L50A
T2 construct: Prokaryotic expression
T2 chain: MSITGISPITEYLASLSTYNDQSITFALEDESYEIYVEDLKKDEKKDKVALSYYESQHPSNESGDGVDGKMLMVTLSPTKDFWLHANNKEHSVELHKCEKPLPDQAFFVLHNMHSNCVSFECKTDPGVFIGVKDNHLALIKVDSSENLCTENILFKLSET
Method: as §1, §2

[3] = molecular target: T3, IL-33 mutant protein L51A (human, UniProt O95760 112-270); assay: ELISA as Example 9; row L51A
T3 construct: Prokaryotic expression
T3 chain: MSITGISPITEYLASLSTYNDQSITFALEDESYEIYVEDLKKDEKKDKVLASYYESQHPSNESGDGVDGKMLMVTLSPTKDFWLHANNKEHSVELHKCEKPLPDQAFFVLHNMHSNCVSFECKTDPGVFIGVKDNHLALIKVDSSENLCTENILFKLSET
Method: as §1, §2

[4] = molecular target: T4, IL-33 mutant protein P59A (human, UniProt O95760 112-270); assay: ELISA as Example 9; row P59A
T4 construct: Prokaryotic expression
T4 chain: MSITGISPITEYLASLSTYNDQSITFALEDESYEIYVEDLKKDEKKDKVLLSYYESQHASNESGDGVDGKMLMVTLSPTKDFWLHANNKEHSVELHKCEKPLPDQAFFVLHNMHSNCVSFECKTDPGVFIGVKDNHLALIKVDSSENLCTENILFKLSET
Method: as §1, §2

[5] = molecular target: T5, IL-33 mutant protein S63A (human, UniProt O95760 112-270); assay: ELISA as Example 9; row S63A
T5 construct: Prokaryotic expression
T5 chain: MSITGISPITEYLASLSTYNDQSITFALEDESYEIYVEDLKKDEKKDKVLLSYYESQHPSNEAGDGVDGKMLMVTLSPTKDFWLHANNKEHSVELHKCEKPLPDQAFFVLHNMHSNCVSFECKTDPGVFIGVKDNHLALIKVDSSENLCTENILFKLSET
Method: as §1, §2

[6] = molecular target: T6, IL-33 mutant protein D68A (human, UniProt O95760 112-270); assay: ELISA as Example 9; row D68A against WT-3
T6 construct: Prokaryotic expression
T6 chain: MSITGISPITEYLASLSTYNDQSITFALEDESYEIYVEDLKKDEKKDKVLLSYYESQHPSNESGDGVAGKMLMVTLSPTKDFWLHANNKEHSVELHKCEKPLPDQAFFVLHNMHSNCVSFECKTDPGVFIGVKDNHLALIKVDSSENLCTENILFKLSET
Method: as §1, §2

[7] = molecular target: T7, IL-33 mutant protein E62A (human, UniProt O95760 112-270); assay: ELISA as Example 9; row E62A against WT-3
T7 construct: Prokaryotic expression
T7 chain: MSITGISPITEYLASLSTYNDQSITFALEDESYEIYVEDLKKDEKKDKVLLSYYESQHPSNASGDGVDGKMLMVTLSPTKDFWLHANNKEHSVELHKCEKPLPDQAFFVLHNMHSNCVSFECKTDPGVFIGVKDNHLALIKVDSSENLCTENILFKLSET
Method: as §1, §2

[8] = molecular target: T8, IL-33 mutant protein S60A (human, UniProt O95760 112-270); assay: ELISA by the method of Example 9 with the IL-33 mutant protein on the plate, 874F7-Hu1 in serial dilution, HRP anti-human IgG Fc, absorbance 450 nm
T8 construct: Prokaryotic expression; also called 560A
T8 chain: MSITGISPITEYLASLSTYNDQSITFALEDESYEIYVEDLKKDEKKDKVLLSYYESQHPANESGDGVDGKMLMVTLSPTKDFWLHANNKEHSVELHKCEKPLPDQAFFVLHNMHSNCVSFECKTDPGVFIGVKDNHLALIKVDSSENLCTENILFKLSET

[9] = molecular target: T1, IL-33 mutant protein D65A; assay: as above

- EC50 [1]: 35.3 nM
- EC50 [2]: 3.34 nM
- EC50 [3]: 0.91 nM
- EC50 [4]: 0.12 nM
- EC50 [5]: 0.16 nM
- Affinity decline ratio [6]: 1.2 fold
- Affinity decline ratio [7]: 0.8 fold
- EC50 (read off the curve) [8]: ~1 nM
- EC50 (read off the curve) [9]: ~2 nM
B1: 874F7-Hu1 (antibody, human IgG4 S228P, kappa)
heavy: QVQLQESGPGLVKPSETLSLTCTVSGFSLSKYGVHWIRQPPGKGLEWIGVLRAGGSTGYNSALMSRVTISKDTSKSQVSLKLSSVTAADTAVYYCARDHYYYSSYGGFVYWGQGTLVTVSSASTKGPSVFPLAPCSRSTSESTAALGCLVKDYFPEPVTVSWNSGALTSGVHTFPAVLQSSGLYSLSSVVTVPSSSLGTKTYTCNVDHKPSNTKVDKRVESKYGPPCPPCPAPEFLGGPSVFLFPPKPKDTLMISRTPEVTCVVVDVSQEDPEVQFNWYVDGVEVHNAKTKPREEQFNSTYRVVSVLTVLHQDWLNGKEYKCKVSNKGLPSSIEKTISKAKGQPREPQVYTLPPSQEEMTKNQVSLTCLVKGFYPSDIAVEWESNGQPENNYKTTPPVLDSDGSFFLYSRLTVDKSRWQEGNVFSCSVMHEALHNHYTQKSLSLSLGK
light: DIQMTQSPSSVSASVGDRVTITCLASQTIGAWLAWYQQKPGKSPKLLIYAATRLADGVPSRFSGSGSGTDFTLTISSLQPEDFATYYCQQLDSSPYTFGQGTKVEIKRTVAAPSVFIFPPSDEQLKSGTASVVCLLNNFYPREAKVQWKVDNALQSGNSQESVTEQDSKDSTYSLSSTLTLSKADYEKHKVYACEVTHQGLSSPVTKSFNRGEC
notes: also called 874F7-Hul; humanized antibody 874F7-Hu1
